The text below walks through data of paper PMC5770965, “pKID Binds to KIX via an Unstructured Transition State with Nonnative Interactions” (Biophysical Journal, 2017).

Non-standard residues stand in square brackets, D forms with d. No end group written: not given here. *: point of attachment. FITC = O=C1OC2(c3ccc(O)cc3Oc3cc(O)ccc32)c2ccc(NC(=S)*)cc21; pS = N[C@@H](COP(=O)(O)O)C(=O)O

The target of assay [1] is KIX domain of CBP KIX domain (UniProt P45481). Nature of the assay: fluorescence anisotropy and stopped-flow kinetics. The settings on record: reference: unphosphorylated KID peptide (Ser133); sites S133. For orientation: Polarisation of emitted light reports the rotation of a fluorescent probe.
Assay [2] has as its target T1, KIX domain of CBP (UniProt P45481 586-665). Description: stopped-flow fluorescence (association kinetics) + dissociation kinetics by competition; KdKin calculated as kdiss/kass,fast. The settings on record: both partners purified.
For assay [3], the target named is T1, KIX domain of CBP. Description: stopped-flow fluorescence (association kinetics); pseudo-first order conditions with KIX in excess over FITC-pKID; biphasic; kass,fast = gradient of the observed fast rate against KIX concentration. The settings on record: both partners purified.
Assay [4] addresses T1, KIX domain of CBP. Description: dissociation kinetics by competition; FITC-pKID displaced from KIX by unlabeled competitor cMybTAD; kdiss = asymptote of the observed dissociation rate against competitor concentration. Conditions: both partners purified.
Assay [5] has as its target T1, KIX domain of CBP. Nature of the assay: fluorescence polarisation; equilibrium fluorescence anisotropy; KIX titrated into N-terminally FITC-labelled pKID peptide; biophysical buffer and conditions as in the accompanying article (ref. 42); KdEqub. Conditions: both partners purified.
The target in assay [6] is T1, KIX domain of CBP. Nature of the assay: dissociation kinetics by competition; FITC-pKID displaced from KIX by unlabeled competitor cMybTAD; kdiss = asymptote of the observed dissociation rate against competitor concentration. The settings on record: both partners purified. The source holds these as a separate data set.
Assay [7] addresses T1, KIX domain of CBP. Nature of the assay: stopped-flow fluorescence (association kinetics); pseudo-first order conditions with KIX in excess over FITC-pKID; biphasic; kass,fast = gradient of the observed fast rate against KIX concentration. The settings on record: both partners purified. The source holds these as a separate data set.
Assay [8] deals with T1, KIX domain of CBP. Nature of the assay: fluorescence polarisation; equilibrium fluorescence anisotropy; KIX titrated into N-terminally FITC-labelled pKID peptide; biophysical buffer and conditions as in the accompanying article (ref. 42); KdEqub. Conditions: both partners purified. The source holds these as a separate data set.
Assay [9] has as its target T1, KIX domain of CBP. Description: stopped-flow fluorescence (association kinetics) + dissociation kinetics by competition; KdKin calculated as kdiss/kass,fast. The settings on record: both partners purified. This is another data set of the same source.

T1 sequence (P45481 586-665): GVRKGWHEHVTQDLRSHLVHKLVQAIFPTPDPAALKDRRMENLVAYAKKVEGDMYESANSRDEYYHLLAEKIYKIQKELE
Sequence of KIX domain of CBP KIX domain (P45481 whole entry, looked up, the tested form may be a part): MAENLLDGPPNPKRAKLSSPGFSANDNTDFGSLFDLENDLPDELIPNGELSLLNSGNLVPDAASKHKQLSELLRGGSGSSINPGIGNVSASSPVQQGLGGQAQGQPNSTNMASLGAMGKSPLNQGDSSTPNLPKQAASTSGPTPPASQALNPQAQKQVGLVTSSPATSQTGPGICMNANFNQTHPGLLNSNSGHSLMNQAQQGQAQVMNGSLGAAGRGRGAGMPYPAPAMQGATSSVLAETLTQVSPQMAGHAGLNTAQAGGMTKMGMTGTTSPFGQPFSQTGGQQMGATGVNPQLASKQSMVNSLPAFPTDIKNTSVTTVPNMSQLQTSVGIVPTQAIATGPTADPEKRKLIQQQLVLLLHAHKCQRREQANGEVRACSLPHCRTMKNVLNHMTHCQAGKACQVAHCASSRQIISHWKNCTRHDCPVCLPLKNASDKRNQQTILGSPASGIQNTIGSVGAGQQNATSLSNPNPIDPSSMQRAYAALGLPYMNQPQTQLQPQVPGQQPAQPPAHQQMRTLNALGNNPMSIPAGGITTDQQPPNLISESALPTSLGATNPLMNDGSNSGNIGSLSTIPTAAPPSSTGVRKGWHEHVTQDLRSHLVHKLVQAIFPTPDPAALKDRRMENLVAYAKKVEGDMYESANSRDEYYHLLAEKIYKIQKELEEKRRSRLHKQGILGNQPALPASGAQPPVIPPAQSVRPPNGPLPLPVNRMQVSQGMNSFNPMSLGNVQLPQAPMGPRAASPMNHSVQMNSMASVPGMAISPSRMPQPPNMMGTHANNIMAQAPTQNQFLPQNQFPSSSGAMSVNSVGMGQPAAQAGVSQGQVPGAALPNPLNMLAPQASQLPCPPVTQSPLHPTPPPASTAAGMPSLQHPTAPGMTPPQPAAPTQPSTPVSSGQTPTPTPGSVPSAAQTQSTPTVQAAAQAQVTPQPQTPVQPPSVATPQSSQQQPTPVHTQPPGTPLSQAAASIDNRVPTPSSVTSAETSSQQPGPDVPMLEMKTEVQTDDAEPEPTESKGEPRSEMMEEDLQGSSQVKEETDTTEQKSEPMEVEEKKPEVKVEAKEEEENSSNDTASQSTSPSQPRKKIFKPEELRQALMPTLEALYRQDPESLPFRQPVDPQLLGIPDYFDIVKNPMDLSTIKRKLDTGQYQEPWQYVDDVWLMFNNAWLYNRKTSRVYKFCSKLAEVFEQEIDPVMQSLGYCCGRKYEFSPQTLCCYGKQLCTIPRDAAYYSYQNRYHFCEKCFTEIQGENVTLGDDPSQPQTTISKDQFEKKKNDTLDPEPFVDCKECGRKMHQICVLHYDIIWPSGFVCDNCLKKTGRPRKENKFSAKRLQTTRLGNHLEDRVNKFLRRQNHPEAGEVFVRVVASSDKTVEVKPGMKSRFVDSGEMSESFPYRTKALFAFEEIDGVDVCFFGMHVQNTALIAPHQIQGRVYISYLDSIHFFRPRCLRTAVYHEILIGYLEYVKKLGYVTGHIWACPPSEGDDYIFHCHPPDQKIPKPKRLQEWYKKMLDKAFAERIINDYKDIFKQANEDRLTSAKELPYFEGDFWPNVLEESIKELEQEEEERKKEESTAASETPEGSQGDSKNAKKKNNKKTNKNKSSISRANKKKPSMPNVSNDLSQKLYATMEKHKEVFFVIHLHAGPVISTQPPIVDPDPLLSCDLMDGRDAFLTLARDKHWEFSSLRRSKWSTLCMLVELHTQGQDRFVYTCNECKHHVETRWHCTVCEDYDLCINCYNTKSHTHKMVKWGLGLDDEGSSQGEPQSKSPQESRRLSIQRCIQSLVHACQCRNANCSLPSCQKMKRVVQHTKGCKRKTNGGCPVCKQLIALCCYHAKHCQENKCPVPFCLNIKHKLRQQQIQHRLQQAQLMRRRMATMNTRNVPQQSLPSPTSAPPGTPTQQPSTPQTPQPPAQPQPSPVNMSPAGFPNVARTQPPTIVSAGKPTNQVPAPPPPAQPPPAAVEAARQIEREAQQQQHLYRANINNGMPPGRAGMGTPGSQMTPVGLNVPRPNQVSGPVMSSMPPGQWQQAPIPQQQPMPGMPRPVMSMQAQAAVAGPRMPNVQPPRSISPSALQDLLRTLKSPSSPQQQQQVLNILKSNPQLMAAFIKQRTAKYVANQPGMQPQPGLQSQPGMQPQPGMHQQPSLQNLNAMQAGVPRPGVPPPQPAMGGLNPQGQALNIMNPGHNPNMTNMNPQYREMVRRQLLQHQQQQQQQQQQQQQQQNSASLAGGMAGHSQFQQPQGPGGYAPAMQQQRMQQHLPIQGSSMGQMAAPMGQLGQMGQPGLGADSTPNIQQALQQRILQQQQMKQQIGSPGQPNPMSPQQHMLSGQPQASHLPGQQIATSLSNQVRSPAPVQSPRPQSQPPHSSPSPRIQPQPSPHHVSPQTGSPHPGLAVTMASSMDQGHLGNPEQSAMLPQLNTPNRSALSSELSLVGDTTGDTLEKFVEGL

With “CREB (KID / pKID region) 116-146 (from UniProt P15337-1) pSer133 pKID peptide”, the “binding against the reference” value in assay [1] is given as “stronger”.

B1: FITC-KID, not phosphorylated at Ser133 (CREB residues 116-146) (peptide, UniProt P15337-1 116-146, looked up)
peptide: {FITC}-DSVTDSQKRREILSRRPSYRKILNDLSSDAP
notes: 'pSer to Ser' in the text; also called ∆pS133; pS133S; source: synthetic peptide, bought: Biomatik
For B1, the Kd with KIX domain of CBP [2] was 7500 ± 1300 nM; with KIX domain of CBP [5] it was 28700 nM. Further, the kon with KIX domain of CBP [3] was 7.6e+06 M⁻¹ s⁻¹. The molecule further gave a koff with KIX domain of CBP [4] of 56.7 s⁻¹.

B2: FITC-pKID wild-type (CREB residues 116-146, phosphorylated at Ser133) (peptide, UniProt P15337-1 116-146, looked up)
peptide: {FITC}-DSVTDSQKRREILSRRP[pS]YRKILNDLSSDAP
notes: also called wtFITCpKID; source: synthetic peptide, bought: Biomatik
As for B2, the Kd in the assay with KIX domain of CBP [2] was 110 ± 20 nM; in the assay with KIX domain of CBP [5], 110 nM. Further, in the assay with KIX domain of CBP [3], the kon was 7.3e+06 M⁻¹ s⁻¹. Further, the dissociation rate constant (koff) with KIX domain of CBP [4] was found to be 0.81 s⁻¹.

B3: FITC-pKID K136G (peptide, UniProt P15337-1 116-146, looked up)
peptide: {FITC}-DSVTDSQKRREILSRRP[pS]YRGILNDLSSDAP
notes: also called A136G; source: synthetic peptide, bought: Biomatik
In turn, B3 gave a koff in the assay with KIX domain of CBP [6] of 10.5 s⁻¹. For the same molecule, the kon with KIX domain of CBP [7] turned out to be 8.3e+06 M⁻¹ s⁻¹. Moreover, the Kd in the assay with KIX domain of CBP [8] is 2160 nM; with KIX domain of CBP [9], 1270 ± 250 nM.

B4: FITC-pKID K136A (peptide, UniProt P15337-1 116-146, looked up)
peptide: {FITC}-DSVTDSQKRREILSRRP[pS]YRAILNDLSSDAP
notes: source: synthetic peptide, bought: Biomatik
B4: the koff with KIX domain of CBP [6] was 0.94 s⁻¹. This molecule had a kon in the assay with KIX domain of CBP [7] of 1.02e+07 M⁻¹ s⁻¹. Also, the results for the Kd with KIX domain of CBP [8] and with KIX domain of CBP [9] were 100 nM and 90 ± 10 nM, respectively.

B5: FITC-pKID T119G (peptide, UniProt P15337-1 116-146, looked up)
peptide: {FITC}-DSVGDSQKRREILSRRP[pS]YRKILNDLSSDAP
notes: the peptide has Gly in place of the natural Thr119; also called A119G; source: synthetic peptide, bought: Biomatik
Take B5: in the assay with KIX domain of CBP [6], the koff stood at 0.67 s⁻¹. In the assay with KIX domain of CBP [7], this molecule returned a kon of 7.1e+06 M⁻¹ s⁻¹. The Kd is 80 nM with KIX domain of CBP [8] and 90 ± 10 nM in the assay with KIX domain of CBP [9].

B6: FITC-pKID S143A (peptide, UniProt P15337-1 116-146, looked up)
peptide: {FITC}-DSVTDSQKRREILSRRP[pS]YRKILNDLSADAP
notes: as for B4
The molecule B6 came in with a koff with KIX domain of CBP [6] of 0.71 s⁻¹. In the assay with KIX domain of CBP [7], this molecule came in with a kon of 9.7e+06 M⁻¹ s⁻¹. For the same molecule, the Kd was 70 nM with KIX domain of CBP [8] and 70 ± 10 nM with KIX domain of CBP [9].

B7: FITC-pKID P132G (peptide, UniProt P15337-1 116-146, looked up)
peptide: {FITC}-DSVTDSQKRREILSRRG[pS]YRKILNDLSSDAP
notes: also called A132G; source: synthetic peptide, bought: Biomatik
Regarding B7, the koff in the assay with KIX domain of CBP [6] is 3.22 s⁻¹. For the same molecule, the kon with KIX domain of CBP [7] came out at 8.3e+06 M⁻¹ s⁻¹. Besides, the Kd was 440 nM with KIX domain of CBP [8] and 390 ± 10 nM with KIX domain of CBP [9].

B8: FITC-pKID E126G (peptide, UniProt P15337-1 116-146, looked up)
peptide: {FITC}-DSVTDSQKRRGILSRRP[pS]YRKILNDLSSDAP
notes: also called A126G; source: synthetic peptide, bought: Biomatik
In the assay with KIX domain of CBP [6], B8 displayed a koff of 2.09 s⁻¹. This molecule also had a kon with KIX domain of CBP [7] of 7.6e+06 M⁻¹ s⁻¹. In addition, the results for the Kd with KIX domain of CBP [8] and in the assay with KIX domain of CBP [9] were 250 nM and 280 ± 30 nM, respectively.

B9: FITC-pKID L128A (peptide, UniProt P15337-1 116-146, looked up)
peptide: {FITC}-DSVTDSQKRREIASRRP[pS]YRKILNDLSSDAP
notes: as for B4
Regarding B9, the figures for the Kd with KIX domain of CBP [2] and with KIX domain of CBP [5] were 2000 ± 160 nM and 2490 nM, respectively. Besides, the kon in the assay with KIX domain of CBP [3] was 7.9e+06 M⁻¹ s⁻¹. In the assay with KIX domain of CBP [4], this molecule displayed a koff of 15.7 s⁻¹.

B10: FITC-pKID Y134A (peptide, UniProt P15337-1 116-146, looked up)
peptide: {FITC}-DSVTDSQKRREILSRRP[pS]ARKILNDLSSDAP
notes: as for B4
B10 yielded a Kd in the assay with KIX domain of CBP [5] of 111000 nM.

B11: FITC-pKID S121A (peptide, UniProt P15337-1 116-146, looked up)
peptide: {FITC}-DSVTDAQKRREILSRRP[pS]YRKILNDLSSDAP
notes: as for B4
As to B11, the values for the Kd in the assay with KIX domain of CBP [2] and with KIX domain of CBP [5] were 100 ± 20 nM and 120 nM, respectively. The same molecule yielded a kon in the assay with KIX domain of CBP [3] of 6.9e+06 M⁻¹ s⁻¹. The molecule also had a koff in the assay with KIX domain of CBP [4] of 0.71 s⁻¹.

B12: FITC-pKID R135A (peptide, UniProt P15337-1 116-146, looked up)
peptide: {FITC}-DSVTDSQKRREILSRRP[pS]YAKILNDLSSDAP
notes: as for B4
In the assay with KIX domain of CBP [6], B12 showed a koff of 2.5 s⁻¹. In addition, in the assay with KIX domain of CBP [7], the kon stood at 1.05e+07 M⁻¹ s⁻¹. The Kd was 100 nM with KIX domain of CBP [8] and 240 ± 20 nM in the assay with KIX domain of CBP [9].

B13: FITC-pKID P132A (peptide, UniProt P15337-1 116-146, looked up)
peptide: {FITC}-DSVTDSQKRREILSRRA[pS]YRKILNDLSSDAP
notes: as for B4
The molecule B13 came in with a koff with KIX domain of CBP [6] of 0.99 s⁻¹. Further, in the assay with KIX domain of CBP [7], the kon is 7.7e+06 M⁻¹ s⁻¹. In addition, the Kd was 70 nM with KIX domain of CBP [8] and 130 ± 10 nM with KIX domain of CBP [9].

By Kd is commonly meant the concentration at which binding is half-saturated. The kon is the second-order rate constant of association. Low readings indicate slower complex formation, high ones faster complex formation. In general, koff refers to a measure of how fast the partners let go of each other. Low readings indicate slow dissociation, high ones fast dissociation.
